According to PMC3207831, “Determinants of the Differential Antizyme-Binding Affinity of Ornithine Decarboxylase” (PLoS ONE, 2011):

Columns and labels:
[1] = biological target: human ornithine decarboxylase, wild type (human) (UniProt P11926)
[2] = biological target: ODC_7M (ODC_Q119H/A124R/N125D/Q129D/E136V/V137D/M140E) (human) (UniProt P11926)
[3] = biological target: human ornithine decarboxylase, wild type (human) (UniProt P11926); test: AUC; sedimentation velocity, 20°C, 42,000 rpm, absorbance at 280 nm; ODC fixed at 0.3 mg/mL, AZ 0.03, 0.06 or 0.09 mg/mL; global fit to the AB hetero-association model (SEDPHAT)
ODC_7M(-V137D) (human) = ODC_7M(-V137D) (human) (UniProt P11926); test: as above
[4] = biological target: ODC_Q119H/V137D/M140E (human) (UniProt P11926); test: as above
[5] = biological target: ODC_7M(-Q119H) (ODC_A124R/N125D/Q129D/E136V/V137D/M140E) (human) (UniProt P11926); test: as above
[6] = biological target: ODC_7M (ODC_Q119H/A124R/N125D/Q129D/E136V/V137D/M140E) (human) (UniProt P11926); test: as above
[7] = biological target: the molecule itself; test: AUC; sedimentation velocity, 20°C, 42,000 rpm, continuous size distribution (SEDFIT); ODC in the absence of AZ

## antizyme (from UniProt P54368 1-228) (natural protein)
[1]
  ODC enzyme activity left with increasing AZ (ODC 20 μg/mL, AZ 0 to 28 μg/mL); value at a molar ratio of 2:1 monomeric AZ to dimeric ODC: 30%
[2]
  ODC enzyme activity left with increasing AZ (ODC 20 μg/mL, AZ 0 to 28 μg/mL); value at a molar ratio of 1:1 AZ:ODC: 90%
[3]
  Kd: 220 nM
ODC_7M(-V137D) (human)
  Kd: 1200 nM
[4]
  Kd: 9950 nM
[5]
  Kd: 1420 nM
[6]
  Kd: 12400 nM

B1: human ornithine decarboxylase, wild type (enzyme, UniProt P11926 1-461, looked up)
chain: MNNFGNEEFDCHFLDEGFTAKDILDQKINEVSSSDDKDAFYVADLGDILKKHLRWLKALPRVTPFYAVKCNDSKAIVKTLAATGTGFDCASKTEIQLVQSLGVPPERIIYANPCKQVSQIKYAANNGVQMMTFDSEVELMKVARAHPKAKLVLRIATDDSKAVCRLSVKFGATLRTSRLLLERAKELNIDVVGVSFHVGSGCTDPETFVQAISDARCVFDMGAEVGFSMYLLDIGGGFPGSEDVKLKFEEITGVINPALDKYFPSDSGVRIIAEPGRYYVASAFTLAVNIIAKKIVLKEQTGSDDEDESSEQTFMYYVNDGVYGSFNCILYDHAHVKPLLQKRPKPDEKYYSSSIWGPTCDGLDRIVERCDLPEMHVGDWMLFENMGAYTVAAASTFNGFQRPTIYYVMSGPAWQLMQQFQNPDFPPEVEEQDASTLPVSCAWESGMKRHRAACASASINV
notes: human ornithine decarboxylase (ODC, EC 4.1.1.17); Homodimer in the absence of AZ by sedimentation velocity; also called hODC; source: E. coli JM109 (pQE30), purified (Ni-NTA)
[7]
  stoichiometry N: 2
